In article PMC8854693 one finds GluN1b-GluN2B NMDAR current, TEVC on Xenopus oocytes, Fv2 data, which are given here for one molecule.

The target in this experiment is intact GluN1b-GluN2B NMDA receptor (rat) (UniProt Q00960).
intact GluN1b-GluN2B NMDA receptor (rat), sequence (Q00960 whole entry, looked up): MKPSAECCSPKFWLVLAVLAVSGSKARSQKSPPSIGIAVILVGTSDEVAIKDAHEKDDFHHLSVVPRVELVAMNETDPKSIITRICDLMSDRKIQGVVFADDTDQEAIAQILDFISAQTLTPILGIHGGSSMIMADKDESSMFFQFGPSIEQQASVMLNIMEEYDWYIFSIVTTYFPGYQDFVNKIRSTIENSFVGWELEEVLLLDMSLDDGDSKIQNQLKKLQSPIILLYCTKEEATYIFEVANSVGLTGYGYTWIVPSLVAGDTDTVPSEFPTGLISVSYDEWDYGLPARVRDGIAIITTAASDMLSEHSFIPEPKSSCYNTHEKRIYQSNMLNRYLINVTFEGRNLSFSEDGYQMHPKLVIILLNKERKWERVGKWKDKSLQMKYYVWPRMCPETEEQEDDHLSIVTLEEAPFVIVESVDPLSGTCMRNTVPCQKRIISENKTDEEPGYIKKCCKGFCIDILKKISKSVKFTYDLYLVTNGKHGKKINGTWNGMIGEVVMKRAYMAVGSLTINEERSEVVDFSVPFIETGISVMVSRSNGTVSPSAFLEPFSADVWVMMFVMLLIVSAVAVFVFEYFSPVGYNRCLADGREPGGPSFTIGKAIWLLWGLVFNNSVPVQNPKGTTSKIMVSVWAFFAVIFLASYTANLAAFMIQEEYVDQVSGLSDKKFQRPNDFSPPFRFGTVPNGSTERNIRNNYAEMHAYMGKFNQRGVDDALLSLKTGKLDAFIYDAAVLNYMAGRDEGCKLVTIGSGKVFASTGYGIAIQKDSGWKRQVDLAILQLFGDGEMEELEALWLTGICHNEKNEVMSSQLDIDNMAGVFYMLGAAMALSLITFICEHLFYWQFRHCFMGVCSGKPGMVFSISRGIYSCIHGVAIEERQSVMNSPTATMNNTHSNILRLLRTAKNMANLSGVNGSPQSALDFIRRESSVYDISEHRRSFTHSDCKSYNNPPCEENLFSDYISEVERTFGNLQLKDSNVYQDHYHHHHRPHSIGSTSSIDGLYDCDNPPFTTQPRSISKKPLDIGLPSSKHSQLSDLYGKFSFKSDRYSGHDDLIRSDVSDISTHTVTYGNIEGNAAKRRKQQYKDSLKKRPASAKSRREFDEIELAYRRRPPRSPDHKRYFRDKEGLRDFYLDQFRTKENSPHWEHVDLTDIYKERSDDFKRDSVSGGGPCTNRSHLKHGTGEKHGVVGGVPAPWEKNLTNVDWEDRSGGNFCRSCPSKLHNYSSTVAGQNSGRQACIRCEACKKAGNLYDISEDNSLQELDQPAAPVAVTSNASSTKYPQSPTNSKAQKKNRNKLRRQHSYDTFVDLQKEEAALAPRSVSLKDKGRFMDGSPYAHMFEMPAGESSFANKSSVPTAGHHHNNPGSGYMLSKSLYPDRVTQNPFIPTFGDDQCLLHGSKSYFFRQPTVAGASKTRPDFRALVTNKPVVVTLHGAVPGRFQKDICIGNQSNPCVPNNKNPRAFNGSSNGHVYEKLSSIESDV

B1: Fv2, variable fragment (Fv) of IgG2 (protein)
VH: DVKLQESGGGLVQPGGSLKLSCAASGFTFSSYTMSWVRQTPEKRLEWVAYISNGGGGTYYPDTVKGRFTISRDNAKNTLYLQMNSLKEDTAMYYCARPSRGGSSYWYFDVWGAGTTVTVSS
VL: DIQMTQSPSSLSASLGGKVTITCKASQDINKYIAWYQHKPGKGPRLLIHYTSSLQPGIPSRFSGSGSGRDYSFSISNLEPEDIATYYCLQYDNLYTFGGGTKLEIK
As for B1, the GluN1b-GluN2B NMDAR current, TEVC on Xenopus oocytes, Fv2 at 0.1 mg/ml (% of maximum current) was 60.
